Assay results as given in patent publication US20240117018A1.

How the values were obtained:
Test in all cases: cell-based or functional assay
[1] = molecular target: 1056_10_TA11_1826 Env pseudovirus (HIV-1)
[2] = molecular target: CNE21 Env pseudovirus (HIV-1)
[3] = molecular target: 6535.3 Env pseudovirus (HIV-1)
[4] = molecular target: 246F C1G Env pseudovirus (HIV-1)
[5] = molecular target: MS208.A1 Env pseudovirus (HIV-1)
[6] = molecular target: PVO.4 Env pseudovirus (HIV-1)
[7] = molecular target: 0260.v5.c36 Env pseudovirus (HIV-1)
[8] = molecular target: Ce0682_E4 Env pseudovirus (HIV-1)
[9] = molecular target: CAAN5342.A2 Env pseudovirus (HIV-1)
[10] = molecular target: Ce1172_H1 Env pseudovirus (HIV-1)
[11] = molecular target: Ce703010054_2A2 Env pseudovirus (HIV-1)
[12] = molecular target: Q461.e2 Env pseudovirus (HIV-1)
[13] = molecular target: CNE52 Env pseudovirus (HIV-1)
[14] = molecular target: HIV-16845-2.22 Env pseudovirus (HIV-1)
[15] = molecular target: ZM53M.PB12 Env pseudovirus (HIV-1)
[16] = molecular target: 191955_A11 Env pseudovirus (HIV-1)
[17] = molecular target: HIV-001428-2.42 Env pseudovirus (HIV-1)
[18] = molecular target: ZM109F.PB4 Env pseudovirus (HIV-1)
[19] = molecular target: SC05_8C11_2344 Env pseudovirus (HIV-1)
[20] = molecular target: SC422661.8 Env pseudovirus (HIV-1)
[21] = molecular target: 928-28 Env pseudovirus (HIV-1)
[22] = molecular target: HIV-0013095-2.11 Env pseudovirus (HIV-1)
[23] = molecular target: ZM197M.PB7 Env pseudovirus (HIV-1)
[24] = molecular target: 1012_11_TC21_3257 Env pseudovirus (HIV-1)
[25] = molecular target: 6244_13_B5_4576 Env pseudovirus (HIV-1)
[26] = molecular target: Ce704809221_1B3 Env pseudovirus (HIV-1)
[27] = molecular target: Q842.d12 Env pseudovirus (HIV-1)
[28] = molecular target: Du422.1 Env pseudovirus (HIV-1)
[29] = molecular target: TRJO4551.58 Env pseudovirus (HIV-1)
[30] = molecular target: ZM214M.PL15 Env pseudovirus (HIV-1)
[31] = molecular target: RHPA4259.7 Env pseudovirus (HIV-1)
[32] = molecular target: Ce1086_B2 Env pseudovirus (HIV-1)
[33] = molecular target: CNE58 Env pseudovirus (HIV-1)
[34] = molecular target: 263-8 Env pseudovirus (HIV-1)
[35] = molecular target: REJO4541.67 Env pseudovirus (HIV-1)
[36] = molecular target: CAP45.2.00.G3 Env pseudovirus (HIV-1)
[37] = molecular target: 1394C9G1(Rev-) Env pseudovirus (HIV-1)
[38] = molecular target: BF1266.431a Env pseudovirus (HIV-1)
[39] = molecular target: MuLV envelope (negative control pseudovirus) (MuLV)
[40] = molecular target: HIV-1 Env pseudovirus CNE8 (HIV-1)
[41] = molecular target: HIV-1 Env pseudovirus 3415.v1.c1 (HIV-1)
[42] = molecular target: HIV-1 Env pseudovirus 263-8 (HIV-1)
[43] = molecular target: HIV-1 Env pseudovirus T257-31 (HIV-1)
[44] = molecular target: Env of HIV-1 pseudovirus 3365.v2.c2 (HIV-1)

PGT121 (antibody)
IC50 [1]: 0.004 µg/mL | IC80 [1]: 0.081 µg/mL | IC50 [2]: 0.007 µg/mL | IC80 [2]: 0.035 µg/mL | IC50 [3]: 0.002 µg/mL | IC80 [3]: 0.008 µg/mL | IC50 [4]: 0.041 µg/mL | IC80 [4]: 0.14 µg/mL | IC50 [5]: > 50 µg/mL | IC80 [5]: > 50 µg/mL | IC50 [6]: 0.098 µg/mL | IC80 [6]: 0.343 µg/mL | IC50 [7]: 0.053 µg/mL | IC80 [7]: 0.197 µg/mL | IC50 [8]: > 50 µg/mL | IC80 [8]: > 50 µg/mL | IC50 [9]: 0.007 µg/mL | IC80 [9]: 0.023 µg/mL | IC80 [10]: 0.036 µg/mL | IC50 [11]: > 50 µg/mL | IC80 [11]: > 50 µg/mL | IC50 [12]: > 50 µg/mL | IC80 [12]: > 50 µg/mL | IC50 [13]: 2.04 µg/mL | IC80 [13]: 18.9 µg/mL | IC50 [14]: 3.97 µg/mL | IC80 [14]: 44.6 µg/mL | IC50 [15]: < 0.001 µg/mL | IC80 [15]: 0.004 µg/mL | IC50 [16]: > 50 µg/mL | IC80 [16]: > 50 µg/mL | IC50 [17]: 0.014 µg/mL | IC80 [17]: 0.051 µg/mL | IC50 [18]: 8.64 µg/mL | IC80 [18]: > 50 µg/mL | IC50 [19]: 0.019 µg/mL | IC80 [19]: 0.071 µg/mL | IC50 [20]: 0.038 µg/mL | IC80 [20]: 0.177 µg/mL | IC50 [21]: 44.2 µg/mL | IC80 [21]: > 50 µg/mL | IC50 [22]: > 50 µg/mL | IC80 [22]: > 50 µg/mL | IC50 [23]: > 50 µg/mL | IC80 [23]: > 50 µg/mL | IC50 [24]: 0.003 µg/mL | IC80 [24]: 0.017 µg/mL | IC50 [25]: 0.061 µg/mL | IC80 [25]: 0.347 µg/mL | IC50 [26]: 0.025 µg/mL | IC80 [26]: 0.126 µg/mL | IC50 [27]: 0.005 µg/mL | IC50 [28]: 0.039 µg/mL | IC80 [28]: 0.143 µg/mL | IC50 [29]: 1.31 µg/mL | IC80 [29]: 37.9 µg/mL | IC50 [30]: 0.46 µg/mL | IC80 [30]: 2.04 µg/mL | IC80 [31]: 0.035 µg/mL | IC50 [32]: < 0.001 µg/mL | IC80 [32]: < 0.001 µg/mL | IC50 [33]: > 50 µg/mL | IC80 [33]: > 50 µg/mL | IC50 [34]: 0.648 µg/mL | IC80 [34]: 3.96 µg/mL | IC50 [35]: 4.77 µg/mL | IC80 [35]: > 50 µg/mL | IC50 [36]: 1.63 µg/mL | IC80 [36]: > 50 µg/mL | IC50 [37]: 0.264 µg/mL | IC80 [37]: 1.95 µg/mL | IC50 [38]: > 50 µg/mL | IC80 [38]: > 50 µg/mL

N49P7 (antibody)
IC50 (neutralisation, TZM.bl cells) [39]: > 50 µg/mL | IC80 (neutralisation, TZM.bl cells) [39]: > 50 µg/mL | MPI [39]: 9

VRC07 (antibody)
IC50 (Titer in TZM.bl cells) [40]: 0.45 µg/mL | IC80 (Titer in TZM.bl cells) [40]: 1.56 µg/mL

VRC01 (antibody)
IC50 (Titer in TZM.bl cells) [41]: 0.06 µg/mL | IC80 (Titer in TZM.bl cells) [41]: 0.15 µg/mL | IC50 (Titer in TZM.bl cells) [42]: 0.2 µg/mL | IC80 (Titer in TZM.bl cells) [42]: 0.55 µg/mL | IC50 (Titer in TZM.bl cells) [43]: 2.8 µg/mL | IC80 (Titer in TZM.bl cells) [43]: 8.66 µg/mL

10-1074 (antibody)
IC50 [44]: 0.131 µg/mL | IC80 [44]: 0.45 µg/mL

N49P7.1 (antibody)
IC50 (neutralisation, TZM.bl cells) [39]: > 50 µg/mL | IC80 (neutralisation, TZM.bl cells) [39]: > 50 µg/mL | MPI [39]: 4
